Km, kcat and kcat/Km data for 2 proteins are collected here from patent US6593454B2, “Methods for identifying inhibitors of methionine aminopeptidases” (Saint Louis University, priority 1999, dated 2003).

Substrate in data set [1]: CSCC[C@H](N)C(=O)NCC(=O)N1CCC[C@H]1C(=O)Nc1ccc([N+](=O)[O-])cc1
Description: AccQ-Tag assay, kinetic parameters of the substrate peptide with type 2 MAP. The data set is classed as biochemical. The following applies: other: human type 2 MAP; substrate Met-Gly-Pro-p-nitroanilide; mean ± SD. The source says:
(§1) To determine whether Met-Gly-Pro-p-nitroanilide is a substrate for MAP, and whether the presence of dipeptidyl peptidase could affect the activity of MAP, an AccQ-Tag assay was used as described in Zuo et al., supra.

Substrate in data set [2]: CSCC[C@H](N)C(=O)NCC(=O)N1CCC[C@H]1C(=O)Nc1ccc([N+](=O)[O-])cc1
Description: AccQ-Tag assay, kinetic parameters of the substrate peptide with type 1 MAP. The data set is classed as biochemical. Particulars: other: yeast type 1 MAP; substrate Met-Gly-Pro-p-nitroanilide; mean ± SD.
From the text: as §1

B1: human type 2 MAP (Homo sapiens) (protein)
chain: MAGVEEVAASGSHLNGDLDPDDREEGAASTAEEAAKKKRRKKKKSKGPSAAGEQEPDKESGASVDEVARQLERSALEDKERDEDDEDGDGDGDGATGKKKKKKKKKRGPKVQTDPPSVPICDLYPNGVFPKGQECEYPPTQDGRTAAWRTTSEEKKALDQASEEIWNDFREAAEAHRQVRKYVMSWIKPGMTMIEICEKLEDCSRKLIKENGLNAGLAFPTGCSLNNCAAHYTPNAGDTTVLQYDDICKIDFGTHISGRIIDCAFTVTFNPKYDTLLKAVKDATNTGIKCAGIDVRLCDVGEAIQEVMESYEVEIDGKTYQVKPIRNLNGHSIGQYRIHAGKTVPIVKGGEATRMEEGEVYAIETFGSTGKGVVHDDMECSHYMKNFDVGHVPIRLPRTKHLLNVINENFGTLAFCRRWLDRLGESKYLMALKNLCDLGIVDPYPPLCDIKGSYTAQFEHTILLRPTCKEVVSRGDDY
Regarding B1, in data set [1], the Km (in general, the concentration of substrate that gives half-maximal velocity) was found to be 3 ± 0.5 mM; the kcat (as a rule, the number of substrate molecules converted per active site and unit of time at saturation) amounted to 8.63 ± 0.583 s⁻¹; the kcat/Km (as a rule, the turnover number divided by the Michaelis constant) amounted to 2870 ± 433 M⁻¹ s⁻¹.

B2: yeast type 1 MAP (Saccharomyces cerevisiae S288C) (protein)
chain: MSTATTTVTTSDQASHPTKIYCSGLQCGRETSSQMKCPVCLKQGIVSIFCDTSCYENNYKAHKALHNAKDGLEGAYDPFPKFKYSGKVKASYPLTPRRYVPEDIPKPDWAANGLPVSEQRNDRLNNIPIYKKDQIKKIRKACMLGREVLDIAAAHVRPGITTDELDEIVHNETIKRGAYPSPLNYYNFPKSLCTSVNEVICHGVPDKTVLKEGDIVNLDVSLYYQGYHADLNETYYVGENISKEALNTTETSRECLKLAIKMCKPGTTFQELGDHIEKHATENKCSVVRTYCGHGVGEFFHCSPNIPHYAKNRTPGVMKPGMVFTIEPMINEGTWKDMTWPDDWTSTTQDGKLSAQFEHTLLVTEHGVEILTARNKKSPGGPRQRIK
Turning to B2, in data set [2], the Km was determined as 4 ± 0.7 mM, the kcat was determined as 14.4 ± 0.417 s⁻¹ and the kcat/Km came out at 3600 ± 583 M⁻¹ s⁻¹.
